B2: FL^SspB (S. gordonii DL1 SspB, residues 39-1433) (other)
chain: DEVTETTSTSTVEVATTGNPATNLPEAQGEMSQVAKESQAKAGSKESALPVEVSSADLDKAVADAKSAGVKVVQDETKDKGTATTATDNAQKQDEIKSDYAKQAEEIKTTTEAYKKEVAAHQAETDKINAENKAADDKYQKDLKSHQEEVEKINTANATAKAEYEAKLAQYQKDLATVKKANEDSQQDYQNKLSAYQTELARVQKANAEAKEAYEKAVKENTAKNEALKVENEAIKQRNETAKATYEAAMKQYEADLAAIKKANEDNDADYQAKLAAYQTELARVQKANAEAKEAYDKAVKENTAKNTAIQAENEAIKQRNETAKATYDAAVKKYEADLAAVKQANATNEADYQAKLAAYQTELARVQKANADAKATYEKAVEDNKAKNAAIKAENEEIKQRNAVAKTDYEAKLAKYEADLAKYKKEFAAYTAALAEAESKKKQDGYLSEPRSQSLNFKSEPNAIRTIDSSVHQYGQQELDALVKSWGISPTNPDRKKSRAYSYFNAINSNNTYAKLVLEKDKPVDVTYTGLKNSSFNGKKISKVVYTYTLKETGFNDGTKMTMFASSDPTVTAWYNDYFTSTNINVKVKFYDEEGQLMNLTGGLVNFSSLNRGNGSGAIDKDAIESVRNFNGRYIPISGSSIKIHENNSAYADSSNAEKSLGARWNTSEWDTTSSPNNWYGAIVGEITQSEISFNMASSKSGNIWFAFNSNINAIGVPTKPVAPTAPTQPMYETEKPLEPAPVAPSYENEPTPPVKTPDQPEPSKPEEPTYETEKPLEPAPVAPSYENEPTPPVKTPDQPEPSKPEEPNYETEKPLEPAPVAPSYENEPTPPVKIPDQPEPSKPEEPTYDPLPTPPLAPTPKQLPTPPVVPTVHFHYSSLLAQPQINKEIKNEDGVDIDRTLVAKQSIVKFELKTEALTAGRPKTTSFVLVDPLPTGYKFDLDATKAASTGFDTTYDEASHTVTFKATDETLATYNADLTKPVETLHPTVVGRVLNDGATYTNNFTLTVNDAYGIKSNVVRVTTPGKPNDPDNPNNNYIKPTKVNKNKEGLNIDGKEVLAGSTNYYELTWDLDQYKGDKSSKEAIQNGFYYVDDYPEEALDVRPDLVKVADEKGNQVSGVSVQQYDSLEAAPKKVQDLLKKANITVKGAFQLFSADNPEEFYKQYVATGTSLVITDPMTVKSEFGKTGGKYENKAYQIDFGNGYATEVVVNNVPKITPKKDVTVSLDPTSENLDGQTVQLYQTFNYRLIGGLIPQNHSEELEDYSFVDDYDQAGDQYTGNYKTFSSLNLTMKDGSVIKAGTDLTSQTTAETDATNGIVTVRFKEDFLQKISLDSPFQAETYLQMRRIAIGTFENTYVNTVNKVAYASNTVRTTTPIPRTPDKPTPIPTPKPKDP
notes: range 39-1433

In experiment [1] the target is T1, FL^AgI/II (S. mutans UA159 Antigen I/II, full length recombinant construct) (Streptococcus mutans UA159, UniProt P23504 39-1562).
T1 construct: also called CG14
The experiment in a line: SPR, analyte over ligand immobilized on CM5 chip, 1:1 Langmuir model; SPR with calcium; immobilized iSRCR1, not deglycosylated.

Experiment [2] addresses T2, C123^AgI/II (Streptococcus mutans UA159, UniProt P23504 1000-1486).
T2 construct: domain: C123
T2 sequence: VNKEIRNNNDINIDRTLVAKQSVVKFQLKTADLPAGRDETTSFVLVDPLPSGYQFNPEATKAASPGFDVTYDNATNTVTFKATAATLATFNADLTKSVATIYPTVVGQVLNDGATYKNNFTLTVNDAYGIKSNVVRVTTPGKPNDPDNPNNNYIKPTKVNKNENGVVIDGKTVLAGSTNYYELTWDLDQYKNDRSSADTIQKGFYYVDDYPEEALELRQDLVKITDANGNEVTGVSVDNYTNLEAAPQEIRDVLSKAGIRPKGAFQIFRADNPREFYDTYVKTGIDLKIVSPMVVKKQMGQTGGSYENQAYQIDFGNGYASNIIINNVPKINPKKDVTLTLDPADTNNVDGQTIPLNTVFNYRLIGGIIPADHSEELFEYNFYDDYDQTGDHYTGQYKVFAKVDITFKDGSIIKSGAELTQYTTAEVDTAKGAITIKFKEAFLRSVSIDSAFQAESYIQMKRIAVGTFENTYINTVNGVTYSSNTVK
The description is as above.

Experiment [3] deals with T3, A3VP1^AgI/II (Streptococcus mutans UA159, UniProt P23504 386-874).
T3 construct: domain: A3VP1; also called A3VP1 of AgI/II
T3 sequence: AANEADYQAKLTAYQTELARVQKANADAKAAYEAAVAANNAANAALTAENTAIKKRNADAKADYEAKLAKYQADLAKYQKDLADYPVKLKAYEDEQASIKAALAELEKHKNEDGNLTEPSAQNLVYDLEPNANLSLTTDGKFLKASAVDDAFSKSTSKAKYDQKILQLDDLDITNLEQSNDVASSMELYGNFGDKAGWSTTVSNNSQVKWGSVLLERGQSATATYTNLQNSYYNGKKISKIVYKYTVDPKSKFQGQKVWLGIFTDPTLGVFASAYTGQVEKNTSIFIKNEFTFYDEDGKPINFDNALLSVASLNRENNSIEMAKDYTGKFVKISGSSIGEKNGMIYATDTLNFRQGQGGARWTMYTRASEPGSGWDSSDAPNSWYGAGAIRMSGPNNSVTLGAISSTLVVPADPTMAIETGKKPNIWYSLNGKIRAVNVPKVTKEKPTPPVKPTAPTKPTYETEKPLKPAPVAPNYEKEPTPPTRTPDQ
The description is as above.

Experiment [4] addresses B2. The experiment is described as above.
Experiment [5] addresses T4, iSRCR123 (human, UniProt Q9UGM3 102-463).
T4 construct: domain: SRCR123; also called SRCRs; iSRCRs
The experiment can be described thus: SPR, analyte over immobilized iSRCR123; quantity and unit not printed beside the number, told as 'nanomolar affinities'. A general note: In SPR one partner is held on a chip, and binding of the other changes the refractive index at the surface.

In experiment [6] the target is T4, iSRCR123. The experiment in a line: SPR, analyte over immobilized iSRCR1; quantity and unit not printed beside the number, unit taken from the paragraph's 'nanomolar affinities'.
Experiment [7] has as its target salivary agglutinin (SAG) (human, UniProt Q9UGM3 20-2413). The experiment in a line: SPR, analyte over SAG immobilized on CM5 chip, 1:1 Langmuir model.
Experiment [8] has as its target T1, FL^AgI/II (S. mutans UA159 Antigen …). The experiment can be described thus: SPR, analyte over ligand deglycosylated on the CM5 chip, 1:1 Langmuir model.
Experiment [9] addresses T2, C123^AgI/II. Described as above.
In experiment [10] the target is T3, A3VP1^AgI/II. Described as above.
In experiment [11] the target is B2. Described as above.

Usually Kd stands for a measure of binding affinity in units of concentration. Broadly, the koff is the first-order rate constant of dissociation. By kon is commonly meant the rate constant with which the complex forms.

T1 sequence (P23504 39-1562): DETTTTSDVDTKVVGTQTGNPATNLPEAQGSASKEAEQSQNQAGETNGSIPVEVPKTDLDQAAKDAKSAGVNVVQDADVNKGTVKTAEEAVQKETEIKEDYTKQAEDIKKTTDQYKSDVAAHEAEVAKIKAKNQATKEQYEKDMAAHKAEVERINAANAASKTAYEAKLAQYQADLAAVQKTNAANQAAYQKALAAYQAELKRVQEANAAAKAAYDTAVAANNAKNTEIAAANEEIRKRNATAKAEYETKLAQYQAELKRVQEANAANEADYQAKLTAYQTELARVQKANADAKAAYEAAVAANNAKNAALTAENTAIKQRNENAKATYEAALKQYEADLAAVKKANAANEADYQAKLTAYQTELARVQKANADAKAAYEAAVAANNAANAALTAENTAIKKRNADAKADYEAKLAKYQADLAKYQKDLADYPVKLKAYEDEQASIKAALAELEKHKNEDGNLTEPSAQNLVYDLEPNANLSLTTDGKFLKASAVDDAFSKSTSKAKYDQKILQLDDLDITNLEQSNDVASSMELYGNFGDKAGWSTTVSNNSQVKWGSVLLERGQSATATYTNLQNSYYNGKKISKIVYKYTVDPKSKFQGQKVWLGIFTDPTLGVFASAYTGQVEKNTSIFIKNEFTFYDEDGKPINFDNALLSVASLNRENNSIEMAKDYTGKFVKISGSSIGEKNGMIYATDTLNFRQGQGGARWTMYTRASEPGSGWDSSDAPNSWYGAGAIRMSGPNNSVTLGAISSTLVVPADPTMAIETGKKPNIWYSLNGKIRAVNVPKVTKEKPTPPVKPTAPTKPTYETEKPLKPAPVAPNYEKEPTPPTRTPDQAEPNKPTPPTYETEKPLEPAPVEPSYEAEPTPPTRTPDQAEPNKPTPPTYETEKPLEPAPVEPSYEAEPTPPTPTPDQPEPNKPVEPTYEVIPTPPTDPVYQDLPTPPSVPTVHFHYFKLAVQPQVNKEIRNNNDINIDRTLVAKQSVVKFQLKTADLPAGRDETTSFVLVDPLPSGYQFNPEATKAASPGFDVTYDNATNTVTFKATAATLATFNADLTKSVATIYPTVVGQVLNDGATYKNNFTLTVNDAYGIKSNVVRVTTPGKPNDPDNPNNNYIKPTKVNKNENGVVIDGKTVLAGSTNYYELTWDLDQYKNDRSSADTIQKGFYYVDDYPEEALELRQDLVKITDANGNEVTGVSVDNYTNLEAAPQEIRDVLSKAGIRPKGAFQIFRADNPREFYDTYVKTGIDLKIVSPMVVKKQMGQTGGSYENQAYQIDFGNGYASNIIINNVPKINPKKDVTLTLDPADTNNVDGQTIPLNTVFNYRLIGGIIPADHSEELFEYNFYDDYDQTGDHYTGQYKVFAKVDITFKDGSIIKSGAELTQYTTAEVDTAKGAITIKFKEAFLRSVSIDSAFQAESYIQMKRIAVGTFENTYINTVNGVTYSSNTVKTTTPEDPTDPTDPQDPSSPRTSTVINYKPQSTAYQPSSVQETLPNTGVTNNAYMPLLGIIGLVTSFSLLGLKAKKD
salivary agglutinin (SAG), sequence (Q9UGM3 whole entry): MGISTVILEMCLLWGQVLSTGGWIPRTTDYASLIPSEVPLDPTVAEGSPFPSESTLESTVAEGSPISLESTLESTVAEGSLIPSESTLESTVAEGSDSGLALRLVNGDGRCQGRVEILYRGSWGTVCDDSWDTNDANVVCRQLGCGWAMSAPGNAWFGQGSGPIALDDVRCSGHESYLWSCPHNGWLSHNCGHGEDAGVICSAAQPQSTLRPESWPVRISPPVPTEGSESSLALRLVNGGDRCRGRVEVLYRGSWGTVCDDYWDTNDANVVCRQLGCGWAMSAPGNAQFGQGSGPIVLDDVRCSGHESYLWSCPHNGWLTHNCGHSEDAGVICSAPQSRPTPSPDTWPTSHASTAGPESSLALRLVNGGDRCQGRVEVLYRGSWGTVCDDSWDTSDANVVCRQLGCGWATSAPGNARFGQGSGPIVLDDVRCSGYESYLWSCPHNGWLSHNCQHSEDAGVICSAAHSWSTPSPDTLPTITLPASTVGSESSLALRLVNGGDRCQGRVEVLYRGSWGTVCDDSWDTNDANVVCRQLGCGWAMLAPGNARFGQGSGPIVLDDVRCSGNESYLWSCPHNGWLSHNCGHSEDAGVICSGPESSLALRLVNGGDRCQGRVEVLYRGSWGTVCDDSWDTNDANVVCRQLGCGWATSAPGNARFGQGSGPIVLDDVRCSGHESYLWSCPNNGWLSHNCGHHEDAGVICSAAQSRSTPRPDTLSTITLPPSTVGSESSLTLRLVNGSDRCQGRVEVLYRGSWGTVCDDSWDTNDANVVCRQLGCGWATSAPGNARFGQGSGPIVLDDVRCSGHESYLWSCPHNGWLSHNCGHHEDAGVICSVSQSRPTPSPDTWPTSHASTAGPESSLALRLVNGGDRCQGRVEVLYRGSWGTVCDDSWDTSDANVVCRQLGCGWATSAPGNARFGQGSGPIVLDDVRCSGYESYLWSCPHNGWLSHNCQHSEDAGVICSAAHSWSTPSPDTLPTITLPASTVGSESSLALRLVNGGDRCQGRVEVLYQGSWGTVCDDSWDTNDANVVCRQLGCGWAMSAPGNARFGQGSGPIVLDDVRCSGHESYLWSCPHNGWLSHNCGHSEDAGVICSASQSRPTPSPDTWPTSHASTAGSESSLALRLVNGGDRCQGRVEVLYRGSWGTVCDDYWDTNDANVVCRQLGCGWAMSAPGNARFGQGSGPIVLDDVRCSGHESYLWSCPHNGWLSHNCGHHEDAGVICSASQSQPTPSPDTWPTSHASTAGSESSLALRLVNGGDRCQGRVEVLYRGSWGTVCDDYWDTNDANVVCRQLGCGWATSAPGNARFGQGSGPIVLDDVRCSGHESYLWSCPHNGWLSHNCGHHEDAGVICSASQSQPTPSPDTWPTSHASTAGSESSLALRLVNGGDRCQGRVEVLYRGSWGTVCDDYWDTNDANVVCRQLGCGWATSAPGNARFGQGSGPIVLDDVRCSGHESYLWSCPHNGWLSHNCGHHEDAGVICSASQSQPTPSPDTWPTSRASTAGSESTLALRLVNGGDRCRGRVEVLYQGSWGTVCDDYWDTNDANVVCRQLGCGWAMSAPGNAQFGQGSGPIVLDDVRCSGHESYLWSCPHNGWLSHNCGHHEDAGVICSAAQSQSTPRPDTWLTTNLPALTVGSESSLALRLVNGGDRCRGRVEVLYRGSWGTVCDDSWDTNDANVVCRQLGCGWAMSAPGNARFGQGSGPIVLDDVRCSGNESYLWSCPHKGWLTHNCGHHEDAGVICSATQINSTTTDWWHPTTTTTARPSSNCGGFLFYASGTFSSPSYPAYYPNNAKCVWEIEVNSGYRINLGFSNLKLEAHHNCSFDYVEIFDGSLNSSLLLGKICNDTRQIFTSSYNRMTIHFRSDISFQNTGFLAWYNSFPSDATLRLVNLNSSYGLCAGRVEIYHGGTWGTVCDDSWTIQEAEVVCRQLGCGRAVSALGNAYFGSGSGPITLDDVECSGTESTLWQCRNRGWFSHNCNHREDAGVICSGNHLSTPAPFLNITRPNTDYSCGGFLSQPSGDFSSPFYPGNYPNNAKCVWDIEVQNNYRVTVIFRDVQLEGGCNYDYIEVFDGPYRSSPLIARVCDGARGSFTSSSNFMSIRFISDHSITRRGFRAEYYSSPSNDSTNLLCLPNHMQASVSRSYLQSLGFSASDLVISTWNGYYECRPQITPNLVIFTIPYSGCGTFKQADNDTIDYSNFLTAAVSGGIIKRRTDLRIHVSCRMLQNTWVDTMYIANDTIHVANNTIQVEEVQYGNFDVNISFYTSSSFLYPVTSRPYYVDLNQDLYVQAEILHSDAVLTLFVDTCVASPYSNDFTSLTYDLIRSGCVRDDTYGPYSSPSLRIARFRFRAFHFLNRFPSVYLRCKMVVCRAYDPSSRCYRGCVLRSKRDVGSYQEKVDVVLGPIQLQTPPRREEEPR
T4 sequence (Q9UGM3 102-463 limits assumed): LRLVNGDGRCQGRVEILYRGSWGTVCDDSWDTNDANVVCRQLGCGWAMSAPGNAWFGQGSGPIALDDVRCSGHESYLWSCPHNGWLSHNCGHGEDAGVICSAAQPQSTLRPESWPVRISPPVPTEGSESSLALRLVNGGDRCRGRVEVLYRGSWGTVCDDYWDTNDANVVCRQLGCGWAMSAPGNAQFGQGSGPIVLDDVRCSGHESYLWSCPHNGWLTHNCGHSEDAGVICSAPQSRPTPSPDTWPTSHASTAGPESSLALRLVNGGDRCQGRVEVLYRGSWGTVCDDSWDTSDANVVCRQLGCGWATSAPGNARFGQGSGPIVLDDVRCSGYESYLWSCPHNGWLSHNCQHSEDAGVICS

B1: iSRCR1 (receptor, not shown: small tags and cut ends)
chain: not shown
notes: domain: SRCR1; also called SRCRs; iSRCRs
As to B1, the Ka in [1] was found to be 1.31e+08 M⁻¹; in the experiment with C123^AgI/II [2], 6.46e+06 M⁻¹; with A3VP1^AgI/II [3] it was 8.57e+06 M⁻¹; in [4] it was 3.91e+06 M⁻¹. Also, the Kd in experiment [1] stood at 7.69 nM; with C123^AgI/II [2], 151 nM; with A3VP1^AgI/II [3], 117 nM; in experiment [4], 256 nM; with iSRCR123 [5], 1.2 nM; with iSRCR123 [6], 5.68 nM. Moreover, the koff came to 0.000976 s⁻¹ in experiment [1], 0.00232 s⁻¹ in the experiment with C123^AgI/II [2], 0.00327 s⁻¹ with A3VP1^AgI/II [3] and 0.00237 s⁻¹ in [4]. Moreover, the kon in experiment [1] was 127000 M⁻¹ s⁻¹; with C123^AgI/II [2], 15400 M⁻¹ s⁻¹; with A3VP1^AgI/II [3], 28000 M⁻¹ s⁻¹; in experiment [4], 9250 M⁻¹ s⁻¹.
B2: in experiment [7], the Ka came out at 1.63e+08 M⁻¹, the Kd is 6.15 nM, the koff came out at 0.00197 s⁻¹ and the on-rate constant (kon) was determined as 320000 M⁻¹ s⁻¹.

B3: iSRCR1 (Deglycosylated) (receptor)
chain: not shown
notes: domain: SRCR1; also called deglycosylated iSRCR1
Regarding B3, the Ka in [8] was determined as 865000 M⁻¹; with C123^AgI/II [9] it was 48100 M⁻¹; with A3VP1^AgI/II [10], 1.92e+06 M⁻¹; in [11] it was 7.97e+06 M⁻¹. Further, the Kd in experiment [8] was 1160 nM; with C123^AgI/II [9] it was 20800 nM; with A3VP1^AgI/II [10], 520 nM; in [11] it was 125 nM. For the same molecule, the off-rate (koff) in experiment [8] came out at 0.0575 s⁻¹; with C123^AgI/II [9], 0.0246 s⁻¹; with A3VP1^AgI/II [10], 0.00274 s⁻¹; in [11], 0.00104 s⁻¹. For the same molecule, the on-rate constant (kon) in experiment [8] was determined as 49700 M⁻¹ s⁻¹; in the experiment with C123^AgI/II [9], 1180 M⁻¹ s⁻¹; with A3VP1^AgI/II [10], 5270 M⁻¹ s⁻¹; in experiment [11], 8300 M⁻¹ s⁻¹.

B4: iSRCR123 (Deglycosylated) (receptor)
chain: not shown
notes: domain: SRCR123; also called deglycosylated iSRCR123
For the molecule B4, in experiment [8], the Ka amounted to 6.82e+06 M⁻¹, the Kd came to 147 nM, the koff is 0.000464 s⁻¹ and the kon amounted to 3160 M⁻¹ s⁻¹. Moreover, in the experiment with C123^AgI/II [9], the Ka amounted to 458000 M⁻¹, binding was put at a Kd of 2180 nM, the off-rate (koff) stood at 0.00658 s⁻¹ and the kon was found to be 3010 M⁻¹ s⁻¹. In the experiment with A3VP1^AgI/II [10], this molecule came in with a Ka of 1.22e+06 M⁻¹, a Kd of 818 nM, a koff of 0.00333 s⁻¹ and a kon of 4070 M⁻¹ s⁻¹. In addition, in experiment [11], the Ka amounted to 5.24e+06 M⁻¹, the Kd stood at 191 nM, the koff is 0.00132 s⁻¹ and the kon was 6920 M⁻¹ s⁻¹.
